Reference: PMC3467076

Target: T1, SNI1 (Arabidopsis thaliana, UniProt Q9SWA6 1-432)
T1 sequence: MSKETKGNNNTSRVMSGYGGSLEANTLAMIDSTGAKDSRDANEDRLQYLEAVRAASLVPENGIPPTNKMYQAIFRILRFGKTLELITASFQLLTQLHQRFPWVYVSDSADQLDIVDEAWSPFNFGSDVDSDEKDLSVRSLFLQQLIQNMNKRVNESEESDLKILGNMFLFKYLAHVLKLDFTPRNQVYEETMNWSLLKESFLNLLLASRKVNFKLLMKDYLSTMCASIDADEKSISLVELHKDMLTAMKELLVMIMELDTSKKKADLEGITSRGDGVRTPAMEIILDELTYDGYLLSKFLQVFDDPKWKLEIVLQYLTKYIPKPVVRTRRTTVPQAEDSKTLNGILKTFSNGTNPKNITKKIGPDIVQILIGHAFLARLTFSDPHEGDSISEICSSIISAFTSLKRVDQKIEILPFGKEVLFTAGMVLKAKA
Test: EMSA

B1: E0-1-1 (dsDNA)
DNA 1: TAATAATGCTTAGTTATAAATTACT
DNA 2: AGTAATTTATAACTAAGCATTATTA
binding result: no binding
